Data as given in paper PMC6223037, “Dye-decolorizing peroxidases in Irpex lacteus combining the catalytic properties of heme peroxidases and laccase play important roles in ligninolytic system” (Biotechnology for Biofuels, 2018).

How the values were obtained:
[1] = substrate: CCn1c(=NN=c2sc3cc(S(=O)(=O)O)ccc3n2CC)sc2cc(S(=O)(=O)O)ccc21; assay: peroxidase oxidation, spectrophotometric; nonlinear fit; type: biochemical, Irpex lacteus; conditions: pH 3, 25 °C, 50 mM sodium tartrate, co-substrate H2O2
From the text: (§1) peroxidase oxidation, spectrophotometric; nonlinear fit on IlDyP2

[2] = substrate: COc1cccc(OC)c1O; assay: as above; type: biochemical, Irpex lacteus; conditions: pH 3, 25 °C, 50 mM sodium tartrate, co-substrate H2O2
From the text: as §1

purified protein = substrate: COc1ccccc1O; assay: purified protein; conditions: 50 mM sodium tartrate
[3] = substrate: CCn1c(=NN=c2sc3cc(S(=O)(=O)O)ccc3n2CC)sc2cc(S(=O)(=O)O)ccc21; assay: peroxidase oxidation, spectrophotometric; nonlinear fit; type: biochemical, Irpex lacteus; conditions: pH 4, 25 °C, 50 mM sodium tartrate, co-substrate H2O2
From the text: (§2) peroxidase oxidation, spectrophotometric; nonlinear fit on IlDyP1

[4] = substrate: COc1cccc(OC)c1O; assay: as above; type: biochemical, Irpex lacteus; conditions: pH 4, 25 °C, 50 mM sodium tartrate, co-substrate H2O2
From the text: as §2

[5] = pH 3, 25 °C, co-substrate H2O2, pH 3.0
[6] = pH 4, 25 °C, co-substrate H2O2, pH 4.0

Protein	Km [1] [µM]	kcat [1] [s⁻¹]	kcat/Km [1] [M⁻¹ s⁻¹]	Km [2] [µM]	kcat [2] [s⁻¹]	kcat/Km [2] [M⁻¹ s⁻¹]	Km (purified protein; [5]) [µM]	kcat (purified protein; [5]) [s⁻¹]	kcat/Km (purified protein; [5]) [M⁻¹ s⁻¹]	Km (purified protein; [6]) [µM]	kcat (purified protein; [6]) [s⁻¹]	kcat/Km (purified protein; [6]) [M⁻¹ s⁻¹]	Km [3] [µM]	kcat [3] [s⁻¹]	kcat/Km [3] [M⁻¹ s⁻¹]	Km [4] [µM]	kcat [4] [s⁻¹]	kcat/Km [4] [M⁻¹ s⁻¹]
IlDyP2 (Irpex lacteus) (protein) YHVKRARSSPLIGSFPGQPPLPTIAEVQSSSAGNDSLPFENIQGDILVGMKKDKEKFVFFHINNATTFKSFLKTYAPANITSVQTIIGPASGQPQAFVNLAFSHTGFGALGVADDLQDTAFTAGQFADAPSFGDDTSTWEEAFKGTNVDGVFLIGSDDVTTTNQYRDDLKAKLGDAWTVLLDLDSAARPGAEKGHEHFGYLDGISNPTIPGFGTPFPGQAVVDSGVIFAGRTNDPVTNRPSWALDGSFLVFRKLKQLVPEFHKWTLDNALQNQAGNLTVEEGALLLGSRMFGRWNSGAPIDLTPDVDDPTLGNDPQRNNDFNYIHPGEDLTTDETRCPFTAHVRKTNPRDLEAQGLIPDLFHAIRAGTPYGPEVTDAESNSNTTSIDRGLAFVEYQSVISNGFRFQQLNWANNANFPFNKSEPLGLDPVIGQGTRQTFGLDPRNASDSLTIPQIIISNGGEYFFSPSITALVEHFGA	125.0 ± 1.4	396	3.2e+06	1631.7 ± 10.9	561 ± 19.3	340000 ± 20000	229.1 ± 15.9	49.7	220000									
IlDyP1 (Irpex lacteus) (protein) YHVKRARTTSLLGSFPGQGALPTVAQVQSTSSGNDSLPLENIQGDILVGMKKQKEQFVFFHINNATTFKKVLKTYAPANITSIQTLLSAPSAQPLAFVNLAFSQSGATALGVTDDLGDSFFSAGQFADASALGDDTSNWDSTFTGTDVHGVFLIGSDETSFVEQYQSDLEAKLGDAWTVSLTIASAARPGDEAGHEHFGYLDGISNPTITGFGTALPGQSVVDPGIILAGRTGDTVSRPSWALDGSFLVFRKLKQLVPEFNKWTLANAIQNASGNLTAQEGADLLGSRMFGRWKSGAPIDLSPDVDDASLGTDPQRNNNFNYTHAGSDITSDESRCPFSAHIRKTNPRDLESVIGHANHAIRAGTPYGPELTDDESSSGTTSTDRGLAFVEYQSNIGNGFRTQQEVWANAAAFPFGKTESIGLDPVIGQGDRTTYGLNAQNVTESYSVPSFVISNGGEYFFSPSITALVETFAA										592.1 ± 53.0	49.2	83000	693.1 ± 8.5	356 ± 11.2	510000 ± 10000	892.7 ± 81.5	199 ± 12.6	220000 ± 10000
